Data taken from PMC5984536.

Target: actin filaments (F-actin) assembled in vitro from DyLight-labeled actin and biotinylated actin (UniProt P68135)
Test: TIRF microscopy of cofilin-EGFP on single actin filaments

Substance: cofilin-EGFP (recombinant mouse cofilin tagged on its C terminus) (from UniProt P18760 1-166) (natural protein)
- average density of cofilin on stuck F-actin against that on mDia1(−) F-actin: 35 % lower
